# Key:
# [1] = in the human body; cited from earlier work
# [2] = cited from earlier work
# [3] = patients, package insert; cited from earlier work
# [4] = HT29 xenograft, bevacizumab-awwb concentration in excised tumors (HPLC); format: in vivo, athymic nude mice; conditions: Day 3
# Method: A non-GLP study was conducted (Metis Labs, Ronkonkoma, NY, USA) using Imagent microbubbles, a human monoclonal antibody and ultrasound with a TE7 and P4-2S probe (Mindray North America, New Jersey, USA); settings used were 2.2 MHz frequency, 0.35 and 0.70 mechanical indexes (MI) during insonation, once every 10 seconds, a microbubble destruct pulse of 1.3 MI lasting 1,100 milliseconds was applied. Total insonation time of 5 minutes per animal was used. Imagent was conjugated with bevacizumab-awwb (Mvasi®, Amgen, Thousand Oaks, CA, USA) (“eBev”) in HT29 human colorectal carcinoma model.
# Thirty-six athymic nude mice (The Jackson Laboratory, Bar Harbor, ME, USA) were randomized into 9 groups of 4 mice and once tumor volumes reached ~200 mm^3, the mice were treated once on day 1. Animals were euthanized on Day 3. The bevacizumab-awwb (either eBev or free bevacizumab-awwb) dose was 100 μL of either a 25:1, 50:1, or 5:1 dilution, depending on the experimental arm, via intravenous administration (i.v.) via jugular vein catheter (Instech One Channel Mouse Button, Instech, Plymouth Meeting, PA, USA). […]
molecule,measurement,setting,value
O=C1[O][Pt]2([NH][C@@H]3CCCC[C@H]3[NH]2)[O]C1=O [Oxaliplatin],half-life,[1],about 14 minutes
FC(F)(F)C(F)(F)C(F)(F)C(F)(F)C(F)(F)C(F)(F)F [Perfluorohexane],"water solubility, times lower than octafluoropropane",[2],704 times
same,"water solubility, times lower than sulfur hexafluoride",[2],"1,000 times"
"Avastin: recombinant humanized monoclonal IgG1 antibody, vascular endothelial growth factor inhibitor",Grade 3-5 hemorrhagic events,[3],0.4-7.0%
same,Grades 3-4 hypertension,[3],5-18%
same,Grades 3-5 Arterial Thromboembolic Events,[3],5%
same,gastrointestinal perforations,[3],0.3-3.0%
same,ovarian failure,[3],34%
same,proteinuria,[3],20%
"bevacizumab-awwb: bevacizumab-awwb (Mvasi, Amgen), human monoclonal antibody",mean concentration of bevacizumab-awwb as measured in the tumors,"[4]; Group 2: free bevacizumab-awwb only, 25:1 dilution, i.v.",around 3 μg
same,mean concentration of bevacizumab-awwb as measured in the tumors,[4]; Groups 3a-3d: free bevacizumab-awwb 25:1 co-administered with Imagent microbubbles + ultrasound,around 3 μg

# — patent publication US12714676B2, “Compositions and methods for targeted delivery of therapeutics using carriers” (VESSELON, INC., priority 2020, dated 2026)
